Results reported in publication PMC7939288, “An apta-aggregation based machine learning assay for rapid quantification of lysozyme through texture parameters”.

Target: lysozyme (chicken (hen egg white), UniProt P00698 19-147)
Assay: visible aggregation assay (photograph texture); 3 ul of 25 nM aptamer + 10 ul of lysozyme; indirect read-out, lysozyme alone gave no aggregate; lysozyme in ultrapure water, no buffer or salt stated; 25 nM aptamer (3 ul) heated at 70 C for 3 min before use; 20 C, 70-90% relative humidity, about 1 min on
Conditions: protein: commercial; 3' hairpin (predicted only)

lysozyme, sequence (P00698 19-147): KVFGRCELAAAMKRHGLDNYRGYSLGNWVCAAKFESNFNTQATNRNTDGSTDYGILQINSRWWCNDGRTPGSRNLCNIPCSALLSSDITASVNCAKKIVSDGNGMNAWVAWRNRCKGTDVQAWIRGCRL

ATCTACGAATTCATCAGGGCTAAAGAGTGCAGAGTTACTTAG (ssDNA) [anti-Lys aptamer (Ellington)]
binding result: binds
